In patent US20180222952A1 (NEW YORK UNIVERSITY, published 2018):

T1: Recombinant sortilin (R&D Systems Cat. No. 3154-ST-050) (UniProt Q99523 78-755, biotin-labeled in the solid phase binding assay of FIG. 11; unlabeled in SPR)
T1 construct: also called biotin-labeled Sortilin
T1 sequence (looked up): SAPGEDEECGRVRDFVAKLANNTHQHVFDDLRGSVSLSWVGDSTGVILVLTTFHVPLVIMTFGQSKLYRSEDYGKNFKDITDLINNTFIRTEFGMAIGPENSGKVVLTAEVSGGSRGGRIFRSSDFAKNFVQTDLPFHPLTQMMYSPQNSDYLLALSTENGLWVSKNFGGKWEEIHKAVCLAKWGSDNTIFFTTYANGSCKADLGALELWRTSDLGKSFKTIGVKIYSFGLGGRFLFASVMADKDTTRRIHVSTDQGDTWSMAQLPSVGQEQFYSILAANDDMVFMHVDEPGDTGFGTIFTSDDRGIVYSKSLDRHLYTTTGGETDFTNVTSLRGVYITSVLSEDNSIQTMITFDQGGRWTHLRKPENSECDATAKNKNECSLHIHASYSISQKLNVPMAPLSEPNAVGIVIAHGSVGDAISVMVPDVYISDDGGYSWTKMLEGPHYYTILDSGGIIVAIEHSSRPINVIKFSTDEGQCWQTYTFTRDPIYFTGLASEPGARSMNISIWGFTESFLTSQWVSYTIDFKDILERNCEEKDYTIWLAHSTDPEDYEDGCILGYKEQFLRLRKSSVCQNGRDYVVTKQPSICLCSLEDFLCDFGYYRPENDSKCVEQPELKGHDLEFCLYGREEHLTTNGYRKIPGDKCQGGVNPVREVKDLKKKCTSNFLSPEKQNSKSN

T2: RFP-fused GBA (encoded by pDsRed-GBA) (UniProt P04062 40-536)
T2 construct: also called RFP fused GCase; GCase; not shown: RFP (DsRed) tag
T2 sequence (looked up): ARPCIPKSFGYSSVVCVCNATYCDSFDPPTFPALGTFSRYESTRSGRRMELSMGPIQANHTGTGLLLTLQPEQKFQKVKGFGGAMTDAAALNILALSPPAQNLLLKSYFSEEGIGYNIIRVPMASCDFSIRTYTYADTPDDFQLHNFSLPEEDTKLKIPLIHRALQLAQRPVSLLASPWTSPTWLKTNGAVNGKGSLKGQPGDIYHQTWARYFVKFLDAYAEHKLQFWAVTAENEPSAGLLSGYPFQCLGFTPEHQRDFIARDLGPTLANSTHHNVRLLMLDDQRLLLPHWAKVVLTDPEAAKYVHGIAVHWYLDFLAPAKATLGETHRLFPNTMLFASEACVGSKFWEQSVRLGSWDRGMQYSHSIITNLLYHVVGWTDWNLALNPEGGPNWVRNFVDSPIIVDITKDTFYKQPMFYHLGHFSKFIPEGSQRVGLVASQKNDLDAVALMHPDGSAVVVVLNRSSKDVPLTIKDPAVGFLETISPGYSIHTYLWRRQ

B1: GFP fused Pcgin/ND7 deletion mutant lacking aa535-539 (RDNRQ) (other)
chain: EKEVVSAQPATFLARSPHVGVKDVECGEGHFCHDNQTCCGWACCPYRQGVCCADRRHCCPAGFRCAARGTKCLRREAPRWDAPLRDPALRQLL
notes: also called ΔRDNRQ; ΔDNRQ; not shown: GFP tag
B2: Recombinant Pcgin, His-tagged, expressed in bacteria (other)
chain: EKEVVSAQPATFLARSPHVGVKDVECGEGHFCHDNQTCCRDNRQGWACCPYRQGVCCADRRHCCPAGFRCAARGTKCLRREAPRWDAPLRDPALRQLL
notes: also called ND7; PGRN ND7 fragment; not shown: His tag
B3: Recombinant LIMP2 (lysosomal integral membrane protein 2; R&D Systems Cat. No. 1966-LM-050) (receptor, UniProt Q14108 27-432, looked up)
chain: RVFQKAVDQSIEKKIVLRNGTEAFDSWEKPPLPVYTQFYFFNVTNPEEILRGETPRVEEVGPYTYRELRNKANIQFGDNGTTISAVSNKAYVFERDQSVGDPKIDLIRTLNIPVLTVIEWSQVHFLREIIEAMLKAYQQKLFVTHTVDELLWGYKDEILSLIHVFRPDISPYFGLFYEKNGTNDGDYVFLTGEDSYLNFTKIVEWNGKTSLDWWITDKCNMINGTDGDSFHPLITKDEVLYVFPSDFCRSVYITFSDYESVQGLPAFRYKVPAEILANTSDNAGFCIPEGNCLGSGVLNVSICKNGAPIIMSFPHFYQADERFVSAIEGMHPNQEDHETFVDINPLTGIILKAAKRFQINIYVKKLDDFVETGDIRTMVFPVMYLNESVHIDKETASRLKSMINTT
modifications: biotin-labeled (EZ-Link Sulfo-NHS-LC-Biotin)
notes: also called biotin-labeled LIMP2
B4: GFP fused Pcgin/ND7 deletion mutant lacking aa523-534 (other)
chain: EKEVVSAQPATFLARSPHVGVKDVECGRDNRQGWACCPYRQGVCCADRRHCCPAGFRCAARGTKCLRREAPRWDAPLRDPALRQLL
notes: not shown: GFP tag
B5: Recombinant His-tag PGRN protein (full length progranulin) (ligand)
chain: TRCPDGQFCPVACCLDPGGASYSCCRPLLDKWPTTLSRHLGGPCQVDAHCSAGHSCIFTVSGTSSCCPFPEAVACGDGHHCCPRGFHCSADGRSCFQRSGNNSVGAIQCPDSQFECPDFSTCCVMVDGSWGCCPMPQASCCEDRVHCCPHGAFCDLVHTRCITPTGTHPLAKKLPAQRTNRAVALSSSVMCPDARSRCPDGSTCCELPSGKYGCCPMPNATCCSDHLHCCPQDTVCDLIQSKCLSKENATTDLLTKLPAHTVGDVKCDMEVSCPDGYTCCRLQSGAWGCCPFTQAVCCEDHIHCCPAGFTCDTQKGTCEQGPHQVPWMEKAPAHLSLPDPQALKRDVPCDNVSSCPSSDTCCQLTSGEWGCCPIPEAVCCSDHQHCCPQGYTCVAEGQCQRGSEIVAGLEKMPARRASLSHPRDIGCDQHTSCPVGQTCCPSLGGSWACCQLPHAVCCEDRQHCCPAGYTCNVKARSCEKEVVSAQPATFLARSPHVGVKDVECGEGHFCHDNQTCCRDNRQGWACCPYRQGVCCADRRHCCPAGFRCAARGTKCLRREAPRWDAPLRDPALRQLL
notes: also called rPGRN; His-tagged PGRN; not shown: His tag
B6: Recombinant GBA (glucocerebrosidase; R&D Systems Cat. No. 7410-GH-010) (enzyme, UniProt P04062 40-536, looked up)
chain: T2 sequence (looked up)
modifications: biotin-labeled (EZ-Link Sulfo-NHS-LC-Biotin) in the solid phase binding assays; unlabeled in SPR
notes: also called GCase; biotin-labeled GBA

Columns and labels:
[1] = molecular target: HSP70 expressed from a plasmid in transfected 293T cells (UniProt P0DMV8 1-641); test: co-IP from co-transfected 293T cells: IP anti-GFP, IB anti-HSP70
Sequence of HSP70 expressed from a plasmid in transfected 293T cells (P0DMV8 whole entry, the tested form may be a part): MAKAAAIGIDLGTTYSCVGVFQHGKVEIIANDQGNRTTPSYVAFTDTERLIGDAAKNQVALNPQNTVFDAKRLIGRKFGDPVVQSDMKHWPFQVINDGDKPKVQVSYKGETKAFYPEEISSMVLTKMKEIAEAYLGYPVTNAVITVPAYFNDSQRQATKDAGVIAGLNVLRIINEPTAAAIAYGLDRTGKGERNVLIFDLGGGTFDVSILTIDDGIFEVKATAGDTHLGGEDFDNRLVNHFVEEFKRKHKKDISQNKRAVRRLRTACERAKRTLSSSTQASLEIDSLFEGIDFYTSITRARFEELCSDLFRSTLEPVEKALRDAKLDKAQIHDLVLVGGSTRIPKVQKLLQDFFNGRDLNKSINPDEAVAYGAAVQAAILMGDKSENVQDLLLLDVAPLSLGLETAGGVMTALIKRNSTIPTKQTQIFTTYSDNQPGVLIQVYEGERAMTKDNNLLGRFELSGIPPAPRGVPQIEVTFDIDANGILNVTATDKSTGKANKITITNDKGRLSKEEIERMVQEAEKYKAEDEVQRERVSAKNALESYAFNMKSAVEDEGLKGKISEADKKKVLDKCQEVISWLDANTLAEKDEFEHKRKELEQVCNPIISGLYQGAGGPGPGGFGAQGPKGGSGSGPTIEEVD
Description: (§1) FIG. 8 depicts that Pcgin/ND7 fragment of PGRN has binding motifs for GCase and HSP70. (A) Scheme of Pcgin amino acid structure and its deletion mutants. (B) Co-IP assays for examining the binding of Pcgin and its mutants to GCase and HSP70. 293T cells were transfected with plasmids encoding either GFP fused Pcgin or its mutants, together with plasmids encoding RFP fused GCase and HSP70, and the protein complexes were immunoprecipitated with GFP antibody and probed with RFP or HSP70 antibodies respectively. […] The result is representative of three independent experiments. (C) Structure and sequence of Pcgin/ND7 fragment of PGRN. […] Sequence of Pcgin (SEQ ID NO:4) is shown in the bottom panel. Linker regions and Gm E are highlighted in green and red, respectively. Binding sites of GCase, HSP70, and Sortilin are indicated.

[2] = molecular target: B6; test: solid phase binding, Pcgin coated, biotin-labeled GCase, ELISA-based detection
Protocol: (§2) Pcgin was coated on a 96-well plate and incubated with biotin-labeled GCase, HSP70, and Sortilin (serving as a positive control) respectively. The direct binding was detected by ELISA-based method.
(§3) Pcgin was then expressed in bacteria and purified as a His-tagged protein. The purity was examined by Coomassie Blue staining and confirmed by Western blotting with His probe (FIG. 10). […] Although Pcgin retained GCase and HSP70 binding activity of PGRN, it lacked PGRN's oncogenic activity, including PGRN-activated oncogenic signaling and cell proliferation (data not shown).

[3] = molecular target: T1, Recombinant sortilin (R&D Systems Cat. …); test: solid phase binding, Pcgin coated, biotin-labeled sortilin (positive control), ELISA-based detection
Protocol: as §2, §3

[4] = molecular target: B5; test: solid phase binding, PGRN coated, biotin-labeled LIMP2
Protocol: Solid phase binding: 0.1, 1, 2, and 5 μg/ml PGRN proteins were coated in 96-wells with triplicate wells in PBS for overnight. The plate was washed with 0.1% tween/PBS five times and then blocked with 2% BSA/PBS solution. Two μg BSA, LIMP2 and GBA protein were labeled with biotin followed the protocol of EZ-Link Sulfo-NHS-LC-Biotin and Biotinylation Kits (Thermo Scientific). Biotin-labeled LIMP2, GBA or BSA were added in the plate and incubate for 2 hours. Wash with 0.1% tween/PBS, and coated with streptavidin-HRP (1:2000 dilution) solution for 1 hour. After washing add t h e substrate and stop the reaction with […] H₂SO₄. Read result at UV 450 nm in plate reader.

[5] = molecular target: T2, RFP-fused GBA (encoded by pDsRed-GBA); test: co-IP from co-transfected 293T cells: IP anti-GFP, IB anti-RFP
Description: as §1

[6] = molecular target: T1, Recombinant sortilin (R&D Systems Cat. …); test: SPR, SensiQ Pioneer, sortilin immobilised, PGRN injected (OneStep)
[7] = molecular target: B5; test: SPR, SensiQ Pioneer, GBA immobilised, PGRN injected (OneStep)
Protocol: Surface Plasmon Resonance (SPR): All SPR experiments were done by SensiQ Technologies Inc. (Oklahoma City, Okla.) by using SensiQ Pioneer at a controlled analysis temperature of 25° C., and samples in the instrument sample racks were maintained at 18° C. The running buffer throughout the immobilization and the assay consisted of 10 mM HEPES, 150 mM NaCl, 0.005% Tween 20. Buffer pH was adjusted to pH 7.4, 6.5, 6.0 or 5.5 for individual runs, and for each pH the running buffer was used to prepare PGRN samples and sucrose diffusion standards.
The assay of PGRN was performed with a total of five buffer blank injections and two replicates of 200 nM PGRN, all of which were given a 1 hour dissociation time. The OneStep™ injection was used for this assay to determine kinetic rate constants and the equilibrium dissociation constant from a single gradient inject. Two injections of 3% sucrose in running buffer were performed to serve as a diffusion standard.
Data was analyzed using the QDat Analysis Software (SensiQ Technologies and BioLogic Software). All data were double referenced to a reference channel (channel 2) and buffer blanks. The average signal of the buffer blanks was used to subtract injection artifacts. Referenced SPR data from the analysis channels were model fit to ascertain ka, kd, and KD for the interactions.

Binder: B1
- binding result [1]: no binding

Binder: B2
- binding result [2]: binds
- binding result [3]: binds

Binder: B3
- binding result [4]: no binding

Binder: B4
- binding result [5]: no binding

Binder: B5
- Kd [6]: 3.67 nM

Binder: B6
- Kd [7]: 0.71 nM
